Data: the nanobody polyreactivity screen of Harvey et al. (2022)

Test: yeast display, Sf9 membrane polyspecificity reagent, FACS + sequencing; frameworks hold sequencing errors
Procedure, shortened: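 Galactose induction of a Saccharomyces cerevisiae BJ5465 synthetic nanobody display library ran 36–48 hours. The cells were then stained for 1 hour at 4 °C with 10% biotinylated, detergent-solubilized Sf9 membrane reagent, pulled down on streptavidin microbeads and FACS-sorted into low and high (top ~1%) gates on expression and reagent-binding fluorescence. Labels for polyreactivity follow the gate of origin.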

Row | Sequence | polyreactivity (PSR sort gate)
1 | QVQLVESGGGLVQAGGSLRLSCAASGRIFGLYAMGWYRQAPGKERELVASISQSGANTYYADSVKGRFTISRDNAKNTVYLQMNCQKPEDTAVSYCAAKRYDRYYYWVGYWGQGTQVIVSS | low polyreactivity
2 | QVQLVESGGGLVQAGGSLRLSCAASGRIFGLYVLGGYRQAPGKERELVAAIDDSGGDTYDADSVKGRFTISRDNAKNTVYIQMNSLKPEDTAVYYCPADYWGYYYGGYYYLRDYWGQGTQVTVSS | high polyreactivity
3 | QVQLVESGGGLVQAGGSLRLSCAASGRIFGPNAMGWYRQAPGKERELVAAISWSGSSTRYADSVKGRFTISRDNAKNTVYLQMNSLKPEDTAVYYCAARRQSPDRYTKYEYWGQGTQVTVSS | low polyreactivity
4 | QVQLVESGGGLVQAGGSLRLSCAASGRIFGPNDMGWYRQAPGKDRELVAAISWSGSSTRYADSVKGRFTISRDNAKNTVYLQMNSLKPEDTAGYYCAADRYWHSVVRDEDYWGQGTQVTVSS | low polyreactivity
5 | QVQLVESGGGLVQAGGSLRLSCAASGRIFGPNDMGWYRQAPGKERELVAAITDSGDITYYADSVKGRFTISRDIAKNSVYLQMNSLKPEDTAVYYCAADHTYENEYWGQGTQVTVSS | low polyreactivity
6 | QVQLVESGGGLVQAGGSLRLSCAASGRIFGPYAMGWYRQAPGKERELVAAIRASSSSTYYADSVKGRFTISRDNAKNTVYVQMNSLKPEDTAVYYCAADWYYGYAWKYGYWGQGTQVTVSS | low polyreactivity
7 | QVQLVESGGGLVQAGGSLRLSCAASGRIFGPYAMGWYRQAPGKERELVAAISGRGSSTYYADSVKGRFTLSRDNAKNTVYLQMNSLKPEDTAVYYCAKYPTYSYDYWGQGTQVTVSS | high polyreactivity
8 | QVQLVESGGGLVQAGGSLRLSCAASGRIFGPYAMGWYRQAPGKERELVASISYSRGSTYYADSVKGRFTISRDNANNTVYLQMNSLKPEDTAVYYCAKGGYWRGYNYWGQGSQVTVSS | low polyreactivity
9 | QVQLVESGGGLVQAGGSLRLSCAASGRIFGPYTMGWYRQEPGKERELVAAITGRVVSTYYADSVKGRFTISRDNAKNTVYLQMNSLQPEDTAVYYCAARIYYYNTRGDYWAQGTQVTVSS | high polyreactivity
10 | QVQLVESGGGLVQAGGSLRLSCAASGRIFGPYVMGWYRQAPGKERELVAAISTSGTSTYYADSVKGRFTISRDNAKNTVYLQMNSLKPEDTAVYDCGIRSGARHRLMDYWGQGTQVTVSS | low polyreactivity
11 | QVQLVESGGGLVQAGGSLRLSCAASGRIFGQNAMGWYRQAPGKERELVAAITGSGGRTYYADSVKGRFTISRDNAKNTVYLQMNSQKPEDTAVYYCAVRVTSYYRTMDYWGQGTQVTVSS | low polyreactivity
12 | QVQLVESGGGLVQAGGSLRLSCAASGRIFGQYAMAWYRHAPGKERELVAAITQRGGSTYYADSVKGRFTISRDNAKNTVYLQMNSLKPEDTAGYYCNKRYRFTGIRDPFDYWGQGTQVTVSS | low polyreactivity
13 | QVQLVESGGGLVQAGGSLRLSCAASGRIFGQYAMGWYRQAPGKERELVAAISWRGGTTYYADSVKGRFTISRDNAKNTVYLQMNSLKPEDTAVYYCNADVWVYPYDYWGQGTQVTVSS | low polyreactivity
14 | QVQLVESGGGLVQAGGSLRLSCAASGRIFGRNAMAWYRQAPGKERELVAAISTSGGTYYADSVKGRFTISRDNAKNTVYLQMISLKPEDTAVYYCNDRGRTQQRWVDYWGQRTQVTVSS | high polyreactivity
15 | QVQLVESGGGLVQAGGSLRLSCAASGRIFGRNAMGWYRQAPGKERELVAAITYSGGRTYYADSVKGRFTISRDNAKNTVYLQMNSLKPEDTAVYYCAAYSFAYRYNYWGQGTQVTVSS | high polyreactivity
16 | QVQLVESGGGLVQAGGSLRLSCAASGRIFGRNTMGWYRQAPGKEREFVAAITWSGGSTYYADSVKGRFTISRDNAKNTVYLQMNSLKPEDTAVYYCAAPSYYRYDYWGQGTQVTVSS | high polyreactivity
17 | QVQLVESGGGLVQAGGSLRLSCAASGRIFGRYAMGWYRQAPGKERELVAAITSGGRTSYADSVKGRFTISRDNAKNTVYLQMNSLKPEDTSVYYCNVVSRNSIRFDYWGQGTQVTVSS | high polyreactivity
18 | QVQLVESGGGLVQAGGSLRLSCAASGRIFGRYAMGWYRQAPGKERELVAAITSSGRTYYADSVKGRFTISRDNAKNTVYLQMNSLKPEDTAVYYCNAVARYTKYNYWGQGTQVTVSS | high polyreactivity
19 | QVQLVESGGGLVQAGGSLRLSCAASGRIFGRYAMGWYRQAPGKERELVASITYRGGGTYYADSVKGRFTISRDNAKNTVYLQMNSLKAEDTAVYYCAAALSNVRNVRSPYDYWGQGTQVTVSS | high polyreactivity
20 | QVQLVESGGGLVQAGGSLRLSCAASGRIFGRYVMGWYRQAPGKERELVAAITSGGSTYYADSVKGRFTISRDNAKNTVYLQMNSLKPEDTAVYYCATRLFYPRFYYWGQGTQVTVSS | high polyreactivity
21 | QVQLVESGGGLVQAGGSLRLSCAASGRIFGRYVMGWYRQAPGKERELVAVITGGGTRTYYADSVKGRFTISRDNAKNTVYLQMNSLKPEDTAVYYCAAPYRPDVDYWGQGTQVTVSS | high polyreactivity
22 | QVQLVESGGGLVQAGGSLRLSCAASGRIFGSNTLGWYRQAPGKEREMVAAISRRGGSTYYADSVKGRFTISRDNAKNTVYLQINSLKPEDTAVYYCAAVGTGSSLRYDYWGQGTQVTVSS | high polyreactivity

Row | Sequence | polyreactivity (PSR sort gate)
23 | QVQLVESGGGLVQAGGSLRLSCAASGRIFGSYAMGWYRQAPGKEREFVAAISVGSGSTYYADSVKGRFTISRDNAKNTVYLQMNSLKPEDTAVYYCAAENLYIDPRDWYGTWDTGYYWGQGTQVTVSS | high polyreactivity
24 | QVQLVESGGGLVQAGGSLRLSCAASGRIFGSYAMGWYRQAPGKERELVAAINWRGGSTFYADSVKGRFTISRDNAKNTVYLQMNSLKPEDTAVYSCARRGYRQSGDYWGQGTQVTVSS | low polyreactivity
25 | QVQLVESGGGLVQAGGSLRLSCAASGRIFGSYAMGWYRQAPGKERELVAAISGDGDSTYYADSVKGRFTISRDNAKNTVYFQMNSLKPEDTAVYYCAAEPNVYFSVFVLFPSDYWGQGTQVTVSS | low polyreactivity
26 | QVQLVESGGGLVQAGGSLRLSCAASGRIFGSYVMGWYRQAPGKERELVAAISFSGDTTYYADSVKGRFTISRDNAKNTVYLQMNSLKPEDTAVYYCAAEFPQGYYAFKYDYWGQGTQVTVSS | high polyreactivity
27 | QVQLVESGGGLVQAGGSLRLSCAASGRIFGTNAMGWYRQAPGKEREMVATITRGGGNTYYADSVKGRFTISRDNAKNTVYLQMNSLKPEDTAVYYCAAKFHRFAWFSHYDYWGQGTQVTVSS | low polyreactivity
28 | QVQLVESGGGLVQAGGSLRLSCAASGRIFGTYAMGWYRQAPGKERELGAAITQSGGRTYYADSVKGRFTISRDNAKKTDYLQMKSLKPEDTAVYYCNKVTYRGIGLGYDYWGQGTQVTVSS | high polyreactivity
29 | QVQLVESGGGLVQAGGSLRLSCAASGRIFGTYAMGWYRQAPGKERELVAVITRGGGTKYADSVKGRFTISRDNAKNTVYLQMNSLKPEDTAVYYCAARGRYYGYNYWGQGTQVTVSS | high polyreactivity
30 | QVQLVESGGGLVQAGGSLRLSCAASGRIFGTYGMGWYRPAPGKERELVAAISGGGSTNYADSVKGRFTISRDNAKNTVYLQMNSLKPEDTAVYYCATRWYRFYPSDYWGQGTQVTVSS | low polyreactivity
31 | QVQLVESGGGLVQAGGSLRLSCAASGRIFGTYTMGWYRQAPGKERELVASIRFGGSTYYADSVKGRFTISRDNAKNSVYLQMNSLKPEDTAVYYCNRVYGYNRRYGYWGQGTQVTVSS | high polyreactivity
32 | QVQLVESGGGLVQAGGSLRLSCAASGRIFGVNAMGWYRQAPGKERELVAAISRSGGSTYYADSVKGRFTISRDNAKNTVYLQMNSLKPEDTAVYYCAAVVKYRYSAYGGDYWRQGTQVTVSS | high polyreactivity
33 | QVQLVESGGGLVQAGGSLRLSCAASGRIFGVNAMGWYRQAPGKERELVAAISWSGGSTYYADSVKGRFTISRDNAKNTVYLQMNSLKPEDTAVYYCAADIWFYTYYLGQGTQVTVSS | high polyreactivity
34 | QVQLVESGGGLVQAGGSLRLSCAASGRIFGVYAMGWYRQAPGKERELVAAIRGDGSTNYADSVKGRFTISRDNAKNTVYLQMNSLKPEDTAVYYCATDLGIYSGSPWGYYYWGQGTQVTVSS | low polyreactivity
35 | QVQLVESGGGLVQAGGSLRLSCAASGRIFGVYAMGWYRQAPGKERELVAAISFSGGRTYYADSVKGRFTISRDNAKNTVYLQMNSLKPEDTAVYYCSALGPYDWLWAGDYWGQGTQVTVSS | low polyreactivity
36 | QVQLVESGGGLVQAGGSLRLSCAASGRIFGVYAMGWYRQAPGKERELVAAISGSTTLTYYADSVKGRFTISRDTAKNTVDLQMNSLKPEDTAVYYCAARSYTPSYKMDYWGQGTKVTVSS | high polyreactivity
37 | QVQLVESGGGLVQAGGSLRLSCAASGRIFGVYAMGWYRQAPGKERELVAAITARGGSTYYADSVKGRFTISRDNAKNTVYLQMNSLKPEDTAVYYCATRLYKRTRTITYGYWGQGTQVTVSS | high polyreactivity
38 | QVQLVESGGGLVQAGGSLRLSCAASGRIFGVYTMGWSRQAPGKERELVAAITSGGNTNYADSVKGRFTISRDNAKNNVYLQMNSLKPEDTAVYYCAARSVRNFYYPGHNYRGQGTQVTVSS | low polyreactivity
39 | QVQLVESGGGLVQAGGSLRLSCAASGRIFGWYAMGWYRQAPGKERELVAAIDGGDDSTYYADSVKGRFTISRDNAKNTVYLQMNSLKPEDTAVYYCAVVGYNWGQGSQVTVSS | low polyreactivity
40 | QVQLVESGGGLVQAGGSLRLSCAASGRIFGWYAMGWYRQAPGKERELVAAITSGSRTSYADSVKGRFTISRDNAKNTVYLQMNSLKPVDTAVYYCNRVSHLDYYWGQGTQVTVSS | high polyreactivity
41 | QVQLVESGGGLVQAGGSLRLSCAASGRIFGWYAMGWYRQAPGKERELVAAITWSGTSTYYAYSVKGRFTISRDNAKNTVYLQMNSLKPEDTAVYYCAAEPGWTMDYWGQGTQVTVSS | low polyreactivity
42 | QVQLVESGGGLVQAGGSLRLSCAASGRIFGWYAMGWYRQAPGKERELVADIRYRGGSTYYADSVKGRFTISRDNAKNTVYLQMHSLKPEDTAVYYCAALGFVPVPYDYWGQGTQVNVSS | low polyreactivity
43 | QVQLVESGGGLVQAGGSLRLSCAASGRIFGWYAMGWYRQAPGKEWELVAAITSGSRTSYADSVKGRFTISRDNAKNTDYLQMNSLNPEDTAVYYCARRSYGIYYRSADDSWGQGTQVTGSS | high polyreactivity
